Assay results taken from paper PMC10042821, “Cryo-EM structure of human eIF5A-DHS complex reveals the molecular basis of hypusination-associated neurodegenerative disorders” (Nature Communications, 2023).

Experiments:
Assay in all cases: MST; His-tagged DHS variants labelled with RED-tris-NTA 2nd Generation, 8.32 nM; eIF5A titrated, sixteen dilutions 0.00175–57.5 μM; 50 mM Tris, 200 mM NaCl, 5 mM β-ME pH 8; Monolith NT.115, 40% excitation power, 60% MST power; no NAD or SPD
Conditions in all cases: both partners purified
[1] = target: T1, deoxyhypusine synthase, wild type, His-tagged (human, UniProt P49366 1-369, RED-tris-NTA 2nd Generation dye on the His tag)
T1 construct: human deoxyhypusine synthase, Uniprot P49366, residues 1-369, in pET24d with N-terminal 6xHis-tag and TEV site; also called DHS; DHS wt; source: E. coli, purified; not shown: 6xHis, N-terminal, kept
T1 sequence (looked up): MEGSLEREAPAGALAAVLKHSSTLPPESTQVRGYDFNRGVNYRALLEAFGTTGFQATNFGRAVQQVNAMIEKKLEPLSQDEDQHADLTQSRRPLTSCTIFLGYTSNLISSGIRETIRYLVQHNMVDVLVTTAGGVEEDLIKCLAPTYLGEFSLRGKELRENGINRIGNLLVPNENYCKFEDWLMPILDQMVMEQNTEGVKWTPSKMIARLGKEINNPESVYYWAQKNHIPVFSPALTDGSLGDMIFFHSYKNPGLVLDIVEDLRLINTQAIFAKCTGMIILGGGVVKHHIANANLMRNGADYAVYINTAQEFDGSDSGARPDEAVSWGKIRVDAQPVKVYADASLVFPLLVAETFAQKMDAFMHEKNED

[2] = target: T2, deoxyhypusine synthase E137A, His-tagged (human, UniProt P49366 1-369, E137A, RED-tris-NTA 2nd Generation dye on the His tag)
T2 construct: human deoxyhypusine synthase, Uniprot P49366, residues 1-369, site-directed mutant of the pET24d full-length construct; also called DHS E137A; source: E. coli, purified; not shown: 6xHis, N-terminal, kept
T2 sequence (looked up): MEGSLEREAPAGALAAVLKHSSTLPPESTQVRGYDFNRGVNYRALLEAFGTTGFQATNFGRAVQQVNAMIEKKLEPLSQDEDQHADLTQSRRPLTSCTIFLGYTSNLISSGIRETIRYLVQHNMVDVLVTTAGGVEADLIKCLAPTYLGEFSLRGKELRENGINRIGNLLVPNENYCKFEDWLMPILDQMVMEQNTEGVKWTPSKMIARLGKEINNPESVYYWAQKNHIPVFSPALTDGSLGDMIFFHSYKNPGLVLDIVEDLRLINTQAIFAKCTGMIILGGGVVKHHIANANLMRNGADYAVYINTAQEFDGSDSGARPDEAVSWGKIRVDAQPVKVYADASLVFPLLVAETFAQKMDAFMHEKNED

[3] = target: T3, deoxyhypusine synthase S240A, His-tagged (human, UniProt P49366 1-369, S240A, RED-tris-NTA 2nd Generation dye on the His tag)
T3 construct: human deoxyhypusine synthase, Uniprot P49366, residues 1-369, site-directed mutant of the pET24d full-length construct; also called DHS S240A; source: E. coli, purified; not shown: 6xHis, N-terminal, kept
T3 sequence (looked up): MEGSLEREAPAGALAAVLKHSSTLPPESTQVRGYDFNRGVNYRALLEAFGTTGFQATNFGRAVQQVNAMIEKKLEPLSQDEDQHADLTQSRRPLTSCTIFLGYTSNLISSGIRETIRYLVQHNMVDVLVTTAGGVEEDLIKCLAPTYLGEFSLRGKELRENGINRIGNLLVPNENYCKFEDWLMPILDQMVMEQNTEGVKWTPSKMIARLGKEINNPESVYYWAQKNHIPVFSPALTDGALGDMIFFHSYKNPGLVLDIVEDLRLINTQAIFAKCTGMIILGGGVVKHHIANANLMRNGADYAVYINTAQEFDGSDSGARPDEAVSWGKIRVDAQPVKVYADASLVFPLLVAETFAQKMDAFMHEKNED

Kd [1]: 40 ± 9 nM
Kd [2]: 2550 ± 880 nM
Kd [3]: 2660 ± 434 nM
B1: eukaryotic translation factor 5A (eIF5A-1), residues 15-151 (domain or fragment)
chain: not shown
notes: human eIF5A1, residues 15-151, from pET28-MHL (Addgene); The purification protocol removes the tag with TEV; source: E. coli, purified (HisTrap, TEV cleavage, reverse HisTrap, SEC); not shown: His tag, N-terminal, cleaved
